In assay [1] the target is T1, DIX domain containing 1, transcript variant 2 (human, UniProt Q155Q3 220-683).
T1 construct: also called DIXDC1
T1 sequence: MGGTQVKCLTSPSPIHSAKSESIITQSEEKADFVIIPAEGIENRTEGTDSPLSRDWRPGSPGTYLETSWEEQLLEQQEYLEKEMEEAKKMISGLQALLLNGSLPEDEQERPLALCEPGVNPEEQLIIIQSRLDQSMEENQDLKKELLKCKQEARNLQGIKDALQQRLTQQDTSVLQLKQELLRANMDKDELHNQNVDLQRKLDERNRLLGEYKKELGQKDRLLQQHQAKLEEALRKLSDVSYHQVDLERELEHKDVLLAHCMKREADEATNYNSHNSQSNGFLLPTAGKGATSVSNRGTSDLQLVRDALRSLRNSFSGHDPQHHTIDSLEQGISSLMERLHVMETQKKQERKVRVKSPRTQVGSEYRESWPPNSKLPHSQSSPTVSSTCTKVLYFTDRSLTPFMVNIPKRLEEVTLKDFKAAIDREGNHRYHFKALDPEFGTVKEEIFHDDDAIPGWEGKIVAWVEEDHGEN

Assay [2] deals with T2, Jupiter microtubule associated homolog 2 (human, UniProt Q9H910 1-190).
T2 construct: also called HN1L
T2 sequence: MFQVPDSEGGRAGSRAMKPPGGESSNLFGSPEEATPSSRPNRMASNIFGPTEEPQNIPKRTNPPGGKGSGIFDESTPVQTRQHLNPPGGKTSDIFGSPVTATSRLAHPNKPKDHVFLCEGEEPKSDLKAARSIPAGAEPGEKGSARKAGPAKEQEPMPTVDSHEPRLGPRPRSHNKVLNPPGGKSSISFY

Assay [3] concerns the target T3, quinoid dihydropteridine reductase, transcript variant 1 (human, UniProt P09417 2-244).
T3 construct: HuProt array protein, full-length recombinant from yeast; also called QDPR
T3 sequence: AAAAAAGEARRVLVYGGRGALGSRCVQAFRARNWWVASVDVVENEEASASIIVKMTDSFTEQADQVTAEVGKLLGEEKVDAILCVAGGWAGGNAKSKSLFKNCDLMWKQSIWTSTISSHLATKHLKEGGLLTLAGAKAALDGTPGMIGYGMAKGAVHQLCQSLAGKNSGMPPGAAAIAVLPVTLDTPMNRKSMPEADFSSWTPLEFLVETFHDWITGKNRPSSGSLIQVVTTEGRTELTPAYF

Assay [4] addresses T4, family with sequence similarity 177 member A1, transcript variant 2 (human, UniProt Q8N128 1-213).
T4 construct: on protein array; also called FAM177A1
T4 sequence: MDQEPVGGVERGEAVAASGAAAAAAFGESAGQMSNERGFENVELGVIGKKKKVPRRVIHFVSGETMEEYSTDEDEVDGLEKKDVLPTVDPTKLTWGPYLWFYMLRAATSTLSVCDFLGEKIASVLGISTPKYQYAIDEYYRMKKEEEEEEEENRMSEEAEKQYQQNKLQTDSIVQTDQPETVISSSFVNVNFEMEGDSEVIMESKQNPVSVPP
Kind of assay: protein array.

For assay [5], the target named is T5, methyltransferase like 21C (human, UniProt Q5VZV1 1-264).
T5 construct: on protein array; also called METTL21C
T5 sequence (Q5VZV1 whole entry): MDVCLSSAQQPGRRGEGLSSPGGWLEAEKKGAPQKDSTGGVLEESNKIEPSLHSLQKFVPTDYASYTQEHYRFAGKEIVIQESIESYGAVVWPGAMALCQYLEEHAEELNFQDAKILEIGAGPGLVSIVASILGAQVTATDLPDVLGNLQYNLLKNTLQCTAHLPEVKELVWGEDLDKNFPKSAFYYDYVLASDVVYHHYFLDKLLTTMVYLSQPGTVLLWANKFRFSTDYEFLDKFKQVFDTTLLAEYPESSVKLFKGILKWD
Briefly: protein array.

Another assay concerns the target T6, annexin A1 (human, UniProt P04083 2-346).
T6 construct: on protein array; also called ANXA1
T6 sequence: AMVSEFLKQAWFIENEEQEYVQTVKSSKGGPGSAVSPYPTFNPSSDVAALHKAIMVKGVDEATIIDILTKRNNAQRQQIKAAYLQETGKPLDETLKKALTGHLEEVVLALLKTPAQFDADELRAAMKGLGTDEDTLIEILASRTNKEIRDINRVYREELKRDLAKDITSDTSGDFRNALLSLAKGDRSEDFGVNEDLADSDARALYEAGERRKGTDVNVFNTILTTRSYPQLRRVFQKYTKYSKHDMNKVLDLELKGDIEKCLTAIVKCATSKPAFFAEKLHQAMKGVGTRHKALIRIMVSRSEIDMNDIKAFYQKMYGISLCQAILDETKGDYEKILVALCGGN
Briefly: protein array, with experimental replicate.

Assay [6] deals with T7, olfactory receptor family 6 subfamily Q member 1 (gene/pseudogene) (human, UniProt Q8NGQ2 1-317).
T7 construct: on protein array; also called OR6Q1
T7 sequence: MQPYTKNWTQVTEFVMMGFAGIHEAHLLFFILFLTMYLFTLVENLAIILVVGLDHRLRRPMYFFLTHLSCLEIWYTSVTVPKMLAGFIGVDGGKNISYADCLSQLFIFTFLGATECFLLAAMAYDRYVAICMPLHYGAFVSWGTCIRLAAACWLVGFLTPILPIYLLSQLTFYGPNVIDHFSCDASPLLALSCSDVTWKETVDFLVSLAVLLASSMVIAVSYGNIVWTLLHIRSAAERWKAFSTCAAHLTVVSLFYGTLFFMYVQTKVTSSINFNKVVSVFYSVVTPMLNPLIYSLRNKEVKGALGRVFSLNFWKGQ
Briefly: protein array.

Assay [7] concerns the target T8, tripartite motif containing 35, transcript variant 1 (human, UniProt Q9UPQ4 1-493, limits assumed).
T8 construct: on protein array; also called TRIM35
T8 sequence: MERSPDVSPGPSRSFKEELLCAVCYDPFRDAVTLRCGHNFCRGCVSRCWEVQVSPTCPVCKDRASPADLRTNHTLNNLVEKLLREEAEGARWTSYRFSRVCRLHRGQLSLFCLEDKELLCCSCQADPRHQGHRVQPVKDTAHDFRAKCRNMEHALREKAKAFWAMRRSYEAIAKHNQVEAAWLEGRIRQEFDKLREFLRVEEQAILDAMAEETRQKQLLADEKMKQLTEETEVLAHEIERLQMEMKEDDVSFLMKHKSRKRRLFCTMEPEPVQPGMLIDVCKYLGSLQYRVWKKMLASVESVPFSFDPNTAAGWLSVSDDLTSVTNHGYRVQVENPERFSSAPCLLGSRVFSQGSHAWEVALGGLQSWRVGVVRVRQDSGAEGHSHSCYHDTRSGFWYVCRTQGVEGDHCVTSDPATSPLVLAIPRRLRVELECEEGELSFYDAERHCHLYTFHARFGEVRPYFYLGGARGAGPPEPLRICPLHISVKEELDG
Briefly: protein array.

The target in assay [8] is T9, Killer cell lectin like receptor g2 (human, UniProt A4D1S0 1-409).
T9 construct: on protein array; also called KLRG2
T9 sequence: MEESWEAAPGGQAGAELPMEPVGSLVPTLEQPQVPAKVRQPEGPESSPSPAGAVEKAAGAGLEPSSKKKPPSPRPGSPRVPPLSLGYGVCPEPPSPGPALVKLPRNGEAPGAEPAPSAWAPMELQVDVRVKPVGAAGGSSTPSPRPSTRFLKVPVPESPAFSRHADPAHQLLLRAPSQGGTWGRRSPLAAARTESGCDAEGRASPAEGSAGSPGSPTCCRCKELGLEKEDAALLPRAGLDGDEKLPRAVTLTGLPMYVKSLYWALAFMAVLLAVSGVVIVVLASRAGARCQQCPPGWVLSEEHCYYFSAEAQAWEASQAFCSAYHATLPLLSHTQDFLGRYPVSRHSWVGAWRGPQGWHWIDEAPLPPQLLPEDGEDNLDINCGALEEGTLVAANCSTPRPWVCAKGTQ
Briefly: protein array.

The target in another assay is T10, FMR1 autosomal homolog 2 (human, UniProt P51116 1-673).
T10 construct: on protein array; also called FXR2
T10 sequence (P51116 whole entry Q252H): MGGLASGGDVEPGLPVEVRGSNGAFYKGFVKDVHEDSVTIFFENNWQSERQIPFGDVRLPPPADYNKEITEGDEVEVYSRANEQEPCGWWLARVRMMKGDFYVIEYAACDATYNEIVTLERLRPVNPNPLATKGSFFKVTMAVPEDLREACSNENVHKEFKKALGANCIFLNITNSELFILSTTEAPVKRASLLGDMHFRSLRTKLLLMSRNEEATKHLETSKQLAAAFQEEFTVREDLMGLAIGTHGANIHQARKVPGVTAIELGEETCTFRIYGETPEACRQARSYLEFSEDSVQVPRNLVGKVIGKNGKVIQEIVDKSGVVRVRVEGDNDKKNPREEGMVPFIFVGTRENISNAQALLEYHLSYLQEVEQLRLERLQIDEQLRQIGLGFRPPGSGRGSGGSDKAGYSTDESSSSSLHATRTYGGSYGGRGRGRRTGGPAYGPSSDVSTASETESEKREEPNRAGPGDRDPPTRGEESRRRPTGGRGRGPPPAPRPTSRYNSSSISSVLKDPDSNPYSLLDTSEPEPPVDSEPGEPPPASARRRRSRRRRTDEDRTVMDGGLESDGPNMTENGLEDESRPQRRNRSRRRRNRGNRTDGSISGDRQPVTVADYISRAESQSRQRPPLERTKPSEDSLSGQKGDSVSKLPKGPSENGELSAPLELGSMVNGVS
Kind of assay: protein array.

The text below walks through data of US20220204643A1 (published 2022).

B1: TTES1010 (antibody, V domains shown)
VH: EVQLVESGGGLVQPGGSLRLSCAASGFTFSSYSMNWVRQAPGKGLEWVSYISSSSSTIYYADSVKGRFTISRDNAKNSLYLQMNSLRAEDTAVYYCASLLGGDPDYWGQGTLVTVSS
VL: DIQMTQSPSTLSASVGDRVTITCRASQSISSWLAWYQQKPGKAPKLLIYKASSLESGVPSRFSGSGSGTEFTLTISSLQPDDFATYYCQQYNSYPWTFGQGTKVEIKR
With B1, in [1], the binding result is reported as “binds”.

B2: TOVA1008 (antibody, V domains shown)
VH: ELQLVESGGGLVQPGGSLRLSCAASGFTFSSYWMSWVRQAPGKGLEWVANINQDGGEKYYVDSVKGRFTISRDNAKNSLYLQMNSLRAEDTAVYYCAHYYYDSSGYYQNAEYFQYWGQGTLVTVSS
VL: DIQMTQSPPSLSASVGDRVTITCQASQDISNYLNWYQQKPGKTPKLLIYAASTLETGVPSRFSGSGSGTDFTFTINSLQPEDIATYYCQQYDSLPLTFGGGTKVEIKR
For B2, the binding result in assay [2] is given as “binds”.

B3: TMEL1034 (antibody, V domains shown)
VH: QLQLQESGPGLVKPWETLSLSCTVSGGSISSSFFYWGWIRQPPGKGLQWIGNIHYTGSTYYNPSLKSRITMSVDTSKNQFSLKLSSVTAADTAVYYCARHRVGDSPGLHYWGQGTLVTVSS
VL: SYELTQPPSVSVSPGQTARITCSGDALPKKYAFWYQQKSGQAPVLVIYEDSKRPSGIPERFSGSSSGTMATLTISGAQVEDESDYYCYSTDSSGNVWVFGGGTKLTVLG
notes: detected with anti-human IgG Fc
For the molecule B3, the binding result in [3] is “binds”.

B4: TLUA1016 (antibody, V domains shown)
VH: EVQLLESGGALVQPGGSLRLSCAVSGLTFNRFAMTWVRQAPGKGLEWVSHIGGSGGYTYYADSVKGRFTISRDNSKNTLYLQMNSLRAEDTAVYHCVKLKGIGAMWTYAMDVWGQGTTVTVSS
VL: QSVLTQPPSVSGAPGQRVTIPCTGSSSNLGAGYAVHWYQQLPATTPKLLIYANSSRPSGVPDRFSGSRSDTSASLAITGLQAEDEADYYCQSYDSSLSGYVFGTGTWVTVLS
notes: VH/VL tied via antigen in summary, not by name in this stretch
For the molecule B4, in assay [4], the binding result is “binds”.

B5: TTES1001 (antibody, V domains shown)
VH: PVQLVQSGAEVKKPGSSVQVSCKGSGGTFSEYGISWLRQAPGQGLEWIGGIIPVLGIPNYAQKFRGRVTITADESTGSAYMEVSSLRSEDTAVYYCAREGLRLARGWFHPWGQGTLVTVTS
VL: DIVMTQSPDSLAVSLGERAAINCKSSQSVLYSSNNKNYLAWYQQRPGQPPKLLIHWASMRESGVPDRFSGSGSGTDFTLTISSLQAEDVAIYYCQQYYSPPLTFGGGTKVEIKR
For B5, the binding result in [1] was “binds”.

B6: TLUS1003 (antibody, V domains shown)
VH: QVHLVQSGSEFKKPGASVKISCKTSGYTFTNYAMNWVRQAPGQGLEWVGWINTVTGIPGYAQGFTGRFIISLDTSGRTSYLQINSLQAEDTAVYYCARSGGFGWSRDLDYWGQGTLVTVSS
VL: DIVLTQSPLSLPVTPGEPASISCRSSQSLLHSNGVYYLDWYLLKPGQSPQLVIYMGSSRASGVPDRFSGSGSGTDFRLKISRVEAEDVGIYYCMQALQTPWTFGQGTKVEIKR
notes: as for B4
In the case of B6, the binding result in assay [5] is “binds”.

B7: TLUA1004 (antibody, V domains shown)
VH: EVQLVESGGGLVQTGGSLRLSCSASGFTFNNYWMHWVRQAPGKGLLWLSRINTDGSRGHYDDSVQGRFTISRDNAKQTVYLQMDGLRAEDTAVYFCARDGYDFRAFDHWGQGVLVTVSS
VL: DIQMTQSPSSLSASVGDKVTMTCRASQFISVYVNWYQQKPGKAPKLLIYTASSLESGVSSRFSGGGSGTDFTLTIRSLQPEDFAIYYCQQTYSTPWTFGPGTRVEIKR
notes: as for B4
B7: the binding result in the assay with annexin A1 was “binds”.

B8: TTES1011 (antibody, V domains shown)
VH: PVTLRESGPALVKPTQTLTLTCTFSGFSLSTSGMCVSWIRQPPGKALEWLARIDWDDDKYYSTSLKTRLTISKDTSKNQVVLTMTNMDPVDTATYYCARMQIVATTQTYYYYYGMDVWGQGTTVTVSS
VL: PAVLTQPPSVSGAPGQRVTISCTGSSSNIGAGYDVHWYQQLPGTAPKLLIYGNSNRPSGVPDRFSGSKSGTSASLAITGLQAEDEADYYCQSYDSSLSGSGVFGGGTKLTVLG
In the case of B8, the binding result in [2] is “binds”.

B9: TBLA1010 (antibody, V domains shown)
VH: EVQLVESGGGLVQPGRSLRLSCAASGFPFGDYAMHWVRQAPGKGLEWVSGIGWDSGGIGYADSVKGRFTISRDIAKNSLYLEINSLRPDDTALYYCAKAAATLPYFRFAMDVWGQGTPVTVSS
VL: EIVLTQSPGTLSLSPGERATLSCRASQSVSSSYLAWYQQKPGQAPRLLIFGASTRASGIPDRFSGRGSGTEFTLTISRLEPEDFAVYYCQQYDSSPFTFGPGTKVEIKR
notes: VH/VL only
Turning to B9, the binding result in [6] is on record as “binds”.

B10: TLUA1001 (antibody, V domains shown)
VH: PLQLQESGPGLVKPSETLSLTCSVSGGSIRSSAPFWGWIRQPPGKGLEWIGNIYYNGDTSYSPSLENRVTLFVDTSKNQFSLNLTSVTAADTAVYYCGRIMTPSIDLWGQGKLVTVSS
VL: EIVLTQSPGTLSLSPGERATLSCRASQSISSTYLVWYQQKPGQAPRLLIYAASYRATGIPDRFSGSGSGTDFILTISRLEPEDFAVYYCQQYGSSLTFGGGTKVEIKR
notes: as for B4
Turning to B10, the binding result (in assay [7]; in [8]; in the assay with FMR1 autosomal homolog 2) was “binds” throughout.
